Results on 4 molecules are retold here after paper PMC10349855, “Structural basis for specific RNA recognition by the alternative splicing factor RBM5”.

For one data set, the target named is T1, RBM5 RRM1 F142A/F144A (human, UniProt P52756 94-184, F142A;F144A).
T1 sequence: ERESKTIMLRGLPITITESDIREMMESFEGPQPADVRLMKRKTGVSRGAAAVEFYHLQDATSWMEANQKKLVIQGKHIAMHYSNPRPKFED
The data set is described as follows: NMR; 20 mM MES pH 6.5, 100 mM NaCl, 1 mM DTT, 25 C; protein 0.1-0.2 mM. As to conditions: tags: His-thioredoxin, TEV-cleaved (scar left out).

The target in a further data set is T2, RBM5 RRM1 (human, UniProt P52756 94-184).
T2 sequence: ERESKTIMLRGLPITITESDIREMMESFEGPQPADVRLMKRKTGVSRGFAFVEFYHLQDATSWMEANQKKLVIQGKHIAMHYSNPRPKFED
In words: ITC; 20 mM MES pH 6.5, 100 mM NaCl, 2 mM 2-mercaptoethanol, 25 C; protein 10-30 uM in the cell; one-site fit. Particulars: tags: His-thioredoxin, TEV-cleaved (scar left out).

Data set [1] addresses T3, RBM5 RRM1-ZnF1 wt (Homo sapiens, UniProt P52756 94-210, I107T).
T3 sequence: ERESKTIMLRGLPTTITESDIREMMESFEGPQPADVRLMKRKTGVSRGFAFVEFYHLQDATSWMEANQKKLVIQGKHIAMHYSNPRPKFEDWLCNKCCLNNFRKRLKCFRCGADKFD
The data set is described as follows: ITC; Zn; 20 mM MES pH 6.5, 100 mM NaCl, 2 mM 2-mercaptoethanol, 25 C; protein 10-30 uM in the cell; one-site fit. Particulars: tags: none; N-terminal Met-Gly from the NcoI site (left out). (ITC needs no label: the signal is the heat of the interaction.)

Data set [2] concerns the target T4, RBM5 RRM1-ZnF1 wt (human, UniProt P52756 94-210).
T4 sequence: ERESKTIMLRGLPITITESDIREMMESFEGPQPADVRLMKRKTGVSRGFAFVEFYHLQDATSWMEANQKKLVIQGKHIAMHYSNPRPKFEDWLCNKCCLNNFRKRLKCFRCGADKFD
In words: ITC; ITC: 20 mM MES pH 6.5, 100 mM NaCl, 2 mM BME, 25 C; NMR: 20 mM MES pH 6.5, 100 mM (single RRMs) or 400 mM (multidomain) NaCl, 1 mM DTT, 298 K. As to conditions: protein: recombinant.

Data set [3] deals with T5, RBM5 RRM1-ZnF1S (Homo sapiens, UniProt P52756 94-210, I107T;C191G).
T5 sequence: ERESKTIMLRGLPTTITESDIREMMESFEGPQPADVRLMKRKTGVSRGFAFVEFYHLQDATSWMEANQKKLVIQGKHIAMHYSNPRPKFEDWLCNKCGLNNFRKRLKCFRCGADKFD
In words: ITC; Zn; 20 mM MES pH 6.5, 100 mM NaCl, 2 mM 2-mercaptoethanol, 25 C; protein 10-30 uM in the cell; one-site fit. Particulars: tags: none; N-terminal Met-Gly from the NcoI site (left out).

In data set [4] the target is T6, RBM5 RRM1-ZnF1S (human, UniProt P52756 94-210, C191G).
T6 sequence: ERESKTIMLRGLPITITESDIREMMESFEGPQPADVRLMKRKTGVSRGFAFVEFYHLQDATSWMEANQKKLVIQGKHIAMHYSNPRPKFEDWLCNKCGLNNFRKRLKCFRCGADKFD
In words: ITC; N about 0.6; Discussion prints 6 uM but also 2.4-fold weaker than 263 nM; ITC: 20 mM MES pH 6.5, 100 mM NaCl, 2 mM BME, 25 C; NMR: 20 mM MES pH 6.5, 100 mM (single RRMs) or 400 mM (multidomain) NaCl, 1 mM DTT, 298 K. Particulars: protein: recombinant.

The target of data set [5] is T6, RBM5 RRM1-ZnF1S. The data set is described as follows: X-ray crystallography; Zn2+; 3.5 A; ITC: 20 mM MES pH 6.5, 100 mM NaCl, 2 mM BME, 25 C; NMR: 20 mM MES pH 6.5, 100 mM (single RRMs) or 400 mM (multidomain) NaCl, 1 mM DTT, 298 K. As to conditions: protein: recombinant.
Another data set concerns the target T7, RBM5 RRM1-ZnF1 F142/144A (Homo sapiens, UniProt P52756 94-210, I107T;F142A;F144A).
T7 sequence: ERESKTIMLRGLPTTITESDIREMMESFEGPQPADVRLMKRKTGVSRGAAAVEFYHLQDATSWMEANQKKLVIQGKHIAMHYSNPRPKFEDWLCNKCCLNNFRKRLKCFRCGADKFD
The data set is described as follows: ITC; Zn; 20 mM MES pH 6.5, 100 mM NaCl, 2 mM 2-mercaptoethanol, 25 C; protein 10-30 uM in the cell; one-site fit. As to conditions: tags: none; N-terminal Met-Gly from the NcoI site (left out).

The target in data set [6] is T8, RBM5 RRM1-ZnF1 R198E (Homo sapiens, UniProt P52756 94-210, I107T;R198E).
T8 sequence: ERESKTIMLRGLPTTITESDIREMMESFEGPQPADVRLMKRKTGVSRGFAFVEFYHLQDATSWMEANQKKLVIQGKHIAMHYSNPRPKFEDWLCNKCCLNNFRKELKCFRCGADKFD
Described as above. As to conditions: tags: none; N-terminal Met-Gly from the NcoI site (left out).

Data set [7] has as its target T9, RBM5 RRM1-ZnF1 F202A (Homo sapiens, UniProt P52756 94-210, I107T;F202A).
T9 sequence: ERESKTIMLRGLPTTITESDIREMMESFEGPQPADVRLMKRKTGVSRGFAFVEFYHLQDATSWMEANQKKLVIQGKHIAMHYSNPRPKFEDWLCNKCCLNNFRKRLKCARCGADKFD
The description is as above. Particulars: tags: none; N-terminal Met-Gly from the NcoI site (left out).

A further data set addresses T10, RBM5 RRM1-ZnF1S-RRM2 (human, UniProt P52756 94-315, C191G).
T10 sequence: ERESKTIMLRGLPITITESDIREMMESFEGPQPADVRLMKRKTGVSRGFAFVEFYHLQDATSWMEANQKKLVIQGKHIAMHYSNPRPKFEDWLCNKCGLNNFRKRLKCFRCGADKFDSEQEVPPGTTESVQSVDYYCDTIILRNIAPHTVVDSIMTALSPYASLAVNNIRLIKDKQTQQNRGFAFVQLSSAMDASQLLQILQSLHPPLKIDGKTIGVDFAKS
The data set is described as above. As to conditions: tags: His-thioredoxin, TEV-cleaved (scar left out).

Data set [8] addresses T11, RBM5 RRM1-ZnF1 F142A/F144A (human, UniProt P52756 94-210, F142A;F144A).
T11 sequence: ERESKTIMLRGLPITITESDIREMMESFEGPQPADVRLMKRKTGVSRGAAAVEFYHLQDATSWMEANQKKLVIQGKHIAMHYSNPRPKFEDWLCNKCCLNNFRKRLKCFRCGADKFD
In words: ITC; ITC: 20 mM MES pH 6.5, 100 mM NaCl, 2 mM BME, 25 C; NMR: 20 mM MES pH 6.5, 100 mM (single RRMs) or 400 mM (multidomain) NaCl, 1 mM DTT, 298 K. As to conditions: protein: recombinant.

For data set [9], the target named is T6, RBM5 RRM1-ZnF1S. The description is as above. Particulars: protein: recombinant.
Data set [10] addresses T12, RBM5 RRM1-ZnF1 F202A (human, UniProt P52756 94-210, F202A).
T12 sequence: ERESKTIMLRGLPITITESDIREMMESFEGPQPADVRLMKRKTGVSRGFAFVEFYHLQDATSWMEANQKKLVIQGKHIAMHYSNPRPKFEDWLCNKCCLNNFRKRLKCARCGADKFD
The description is as above. As to conditions: protein: recombinant.

For data set [11], the target named is T13, RBM5 RRM1-ZnF1 R198E (human, UniProt P52756 94-210, R198E).
T13 sequence: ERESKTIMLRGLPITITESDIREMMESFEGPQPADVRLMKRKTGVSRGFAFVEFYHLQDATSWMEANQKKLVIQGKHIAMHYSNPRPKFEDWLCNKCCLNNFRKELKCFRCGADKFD
Described as above. Particulars: protein: recombinant.

For a further data set, the target named is T14, RBM5 RRM2 (human, UniProt P52756 231-315).
T14 sequence: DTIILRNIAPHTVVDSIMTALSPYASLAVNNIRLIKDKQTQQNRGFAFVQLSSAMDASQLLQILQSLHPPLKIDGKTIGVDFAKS
The data set is described as follows: ITC; average of two; ITC: 20 mM MES pH 6.5, 100 mM NaCl, 2 mM BME, 25 C; NMR: 20 mM MES pH 6.5, 100 mM (single RRMs) or 400 mM (multidomain) NaCl, 1 mM DTT, 298 K. Particulars: protein: recombinant; tags: His-Trx tag, TEV cleaved.

For data set [12], the target named is T4, RBM5 RRM1-ZnF1 wt. The data set is described as follows: ITC; average of two; text 153 nM; ITC: 20 mM MES pH 6.5, 100 mM NaCl, 2 mM BME, 25 C; NMR: 20 mM MES pH 6.5, 100 mM (single RRMs) or 400 mM (multidomain) NaCl, 1 mM DTT, 298 K. Particulars: protein: recombinant.

B1: CU_9 (ssRNA)
RNA: UCUCUUCUC
For orientation: Kd means the constant that tells how readily two partners part at equilibrium. For the molecule B1, the binding result with RBM5 RRM1 F142A/F144A was “no binding”. Also, the Kd with RBM5 RRM1 was 19700 ± 6500 nM; with RBM5 RRM1-ZnF1 wt [1], 5560 ± 2830 nM; with RBM5 RRM1-ZnF1 wt [2], 6000 nM.

B2: eGGCU_12 (ssRNA)
RNA: ACUUGGCUCUUCUCU
For the molecule B2, the Kd with RBM5 RRM1-ZnF1S [3] and with RBM5 RRM1-ZnF1S [4] was 641 ± 125 nM each time.

B3: GGCU_10 (ssRNA)
RNA: UGGCUCUUCU
On to B3, for which the binding result with RBM5 RRM1-ZnF1S [5] is “binds”.

B4: GGCU_12 (ssRNA)
RNA: UGGCUCUUCUCU
B4: the Kd with RBM5 RRM1 stood at 1880 ± 950 nM; with RBM5 RRM1-ZnF1S [3], 263 ± 27 nM; in the data set with RBM5 RRM1-ZnF1 F142/144A, 448 ± 36 nM; in the data set with RBM5 RRM1-ZnF1 wt [1], 153 ± 69 nM; with RBM5 RRM1-ZnF1 R198E [6], 2660 ± 380 nM; with RBM5 RRM1-ZnF1 F202A [7], 379 ± 41 nM. Further, the Kd with RBM5 RRM1-ZnF1S-RRM2 came out at 133 ± 12 nM; in data set [8] it was 448 nM; in the data set with RBM5 RRM1-ZnF1S [9], 263 ± 27 nM; in the data set with RBM5 RRM1-ZnF1 F202A [10] it was 379 nM; in the data set with RBM5 RRM1-ZnF1 R198E [11], 2700 nM; with RBM5 RRM2 it was 173000 nM. Besides, the Kd with RBM5 RRM1-ZnF1 wt [12] turned out to be 153 nM.
